Experimental data reported in publication PMC2134809 (The Journal of Cell Biology, 1997).

Biological target: Rabbit skeletal muscle actin (rabbit, UniProt P68135 1-377)
Assay: co-sedimentation

B1: Arp2/3 complex (complex)
chain 1: not shown
chain 2: not shown
chain 3: MSANIENFKDSAKLTCITCHAFNRDRTLIAICPNNNEVHIYQKQGAEWVKNAVLVEHDQAVTGIDWGHKENRIVTCSQDRNAYVWSLGADGKWKPTLVLLRITRAATHVKWSPNEEKFAVATGAKCVSVCYFEEANDWWVSKHIKLHKSTVLNVAWHPNNIFLATAASDFKARIFSAFIKGVDKRPENTPFGDKLPFGEMLAEYSCGGWVHGVSWSPSGEWLSFVSHDSAISFVNISTGREAVPQRLSLSGLPYRVLAFLNPTDIIAAGYDCNPALFRLSGQTWAFVKNVDESSAAARAAPGAAQSAMNMWQKKADLGTTSNETQLETKHQNAISGLTALAPNQFSTTAVDGKLIIWTVRA
chain 4: MILLETGSRILEEVIRQRVQSDKREAVDITLADFDGVQYHIATNATQRNLVTVSISWPCISQMKQFGTDAKVQSFYGPLVTSAETGYDYTLQFDLDNLADKDSLPGKIALFKRTVVAAPLEAVFDGKPGLPPVITINYRTNEAVYLKREGNNVAVIFSINFKDKDDIVIGKVFLQELEAARKTINNAPAVTFSQRERPLELKSVQNVYEGEDQGFVTFLLFGPHTHESRRGKTIDTIHLFRNYLHYHIKCSKAFLHTRMRLRVEELLQVLNRAKIKNANKEMKTMSGRTFKRA
chain 5: MCGMGVLPIKTKYKGPAPRYTGPADQPDIIDEAISFFKANVLFRNYEVKGPADRVLIYLTLYISQAINQMVNQSKGGAQKNLFNLAIQNFAVPGDKNFALAGFVSNPANRAEADQIRQYLTQLRQETGDRLIEAVYAFGENEPSKWWMCFSKRKFLNKNL
chain 6: METPEKPERSDAEFQQSLDARQREVNNALNTGNPGRALSAALQDPPLGCKNQQIRAVVNVLTSVKDADMQKNIDALSPTDLDTLMKYIYRGLEDGENSTSLLKWHEAVTKKGGLGCIVRALAERKAL
In the case of B1, the Kd is reported as 2300 ± 300 nM and the “stoichiometry N” value is reported as 1 actin monomer per Arp2/3-binding site.
